# B1: Proto-oncogene tyrosine-protein kinase LCK (Mus musculus), P06240 (parent)
# chain: MGCVCSSNPEDDWMENIDVCENCHYPIVPLDSKISLPIRNGSEVRDPLVTYEGSLPPASPLQDNLVIALHSYEPSHDGDLGFEKGEQLRILEQSGEWWKAQSLTTGQEGFIPFNFVAKANSLEPEPWFFKNLSRKDAERQLLAPGNTHGSFLIRESESTAGSFSLSVRDFDQNQGEVVKHYKIRNLDNGGFYISPRITFPGLHDLVRHYTNASDGLCTKLSRPCQTQKPQKPWWEDEWEVPRETLKLVERLGAGQFGEVWMGYYNGHTKVAVKSLKQGSMSPDAFLAEANLMKQLQHPRLVRLYAVVTQEPIYIITEYMENGSLVDFLKTPSGIKLNVNKLLDMAAQIAEGMAFIEEQNYIHRDLRAANILVSDTLSCKIADFGLARLIEDNEYTAREGAKFPIKWTAPEAINYGTFTIKSDVWSFGILLTEIVTHGRIPYPGMTNPEVIQNLERGYRMVRPDNCPEELYHLMMLCWKERPEDRPTFDYLRSVLDDFFTATEGQYQPQP
# Variants of: B1
# Details: with cd4_mouse Cd4, P06332
# cd4_mouse Cd4, P06332, sequence (P06332 whole entry): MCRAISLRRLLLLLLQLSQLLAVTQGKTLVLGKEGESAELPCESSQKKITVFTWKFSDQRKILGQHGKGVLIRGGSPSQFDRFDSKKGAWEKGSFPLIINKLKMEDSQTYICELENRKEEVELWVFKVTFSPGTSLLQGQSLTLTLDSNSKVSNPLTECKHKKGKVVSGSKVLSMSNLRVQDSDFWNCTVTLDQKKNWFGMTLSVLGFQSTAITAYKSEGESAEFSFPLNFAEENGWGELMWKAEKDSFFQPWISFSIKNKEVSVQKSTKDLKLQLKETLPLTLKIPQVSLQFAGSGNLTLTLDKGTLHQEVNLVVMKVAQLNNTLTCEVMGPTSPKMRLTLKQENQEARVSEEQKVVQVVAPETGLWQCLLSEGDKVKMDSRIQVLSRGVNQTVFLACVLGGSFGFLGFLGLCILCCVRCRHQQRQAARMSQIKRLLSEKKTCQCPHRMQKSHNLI
row,Variant,effect of a mutation on the interaction
1,C20A,decreasing interaction

# From IntAct's records for PubMed 7486703
